Experimental data as given in PMC3383723.

Molecular target: T1, Vps41-TAP (yeast), P38959
T1 chain: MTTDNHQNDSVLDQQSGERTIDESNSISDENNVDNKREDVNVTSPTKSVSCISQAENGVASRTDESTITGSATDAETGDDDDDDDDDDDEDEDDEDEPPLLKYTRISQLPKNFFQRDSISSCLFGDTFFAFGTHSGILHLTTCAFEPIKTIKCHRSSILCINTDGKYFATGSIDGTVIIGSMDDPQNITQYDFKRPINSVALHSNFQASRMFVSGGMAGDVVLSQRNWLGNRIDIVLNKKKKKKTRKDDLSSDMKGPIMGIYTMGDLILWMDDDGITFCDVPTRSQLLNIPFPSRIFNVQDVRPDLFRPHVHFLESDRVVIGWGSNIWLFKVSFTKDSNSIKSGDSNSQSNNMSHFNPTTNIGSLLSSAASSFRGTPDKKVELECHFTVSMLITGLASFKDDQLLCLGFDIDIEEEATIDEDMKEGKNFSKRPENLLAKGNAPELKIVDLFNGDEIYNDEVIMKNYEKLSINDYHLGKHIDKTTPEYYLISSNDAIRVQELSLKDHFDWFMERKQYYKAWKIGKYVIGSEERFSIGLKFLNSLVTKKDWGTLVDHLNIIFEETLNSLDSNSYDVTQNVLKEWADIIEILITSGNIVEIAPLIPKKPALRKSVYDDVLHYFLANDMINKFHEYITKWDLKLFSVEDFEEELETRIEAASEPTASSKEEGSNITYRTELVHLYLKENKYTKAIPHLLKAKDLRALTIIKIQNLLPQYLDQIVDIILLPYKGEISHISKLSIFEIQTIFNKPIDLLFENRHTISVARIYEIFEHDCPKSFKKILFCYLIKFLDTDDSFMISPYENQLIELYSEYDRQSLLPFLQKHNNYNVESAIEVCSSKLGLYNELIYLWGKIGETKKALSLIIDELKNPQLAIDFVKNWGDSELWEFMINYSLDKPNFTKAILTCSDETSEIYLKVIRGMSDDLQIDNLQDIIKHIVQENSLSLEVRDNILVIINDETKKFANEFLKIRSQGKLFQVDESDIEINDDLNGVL
Assay: co-IP
Conditions: remark: other sources report otherwise

B1: Vps39, Q07468 1-1049 (natural protein)
chain: MLRAQKLHSLKSSDITAILPTEQSQKLVLAKKNGDVEVYSRDGNTLKLFQVYPDLLQNAKNDPLPPVIENFYFANELSTIFAQCKETLILLSTTNLHEYDRIIDRRGINHCWLFERSHKNKEEKNTYLIYSTINTAKMRVLIWEGRTYKNMMEASLSYRKETIRSIYPGETGITLATDLGIYHWPYNKPSLIRIEKTVKNKFPKDMISALTELKEQAEKVIEKKPKKNSHFDAQSFSSMDRMSRKSSMSSLWYRTIRNERGNKIRYTFELDGNDATPMIIDGATKKIFKVELMHNNEEPFLIATDHATFSESNSEFDHMQYLSSNLLMLYNSSTIKFVDYENGFTFLQQKIPEGIKWVKNLSGTYFLVWTSNDEVQLFSYHVDDGSEDDDQESICGDINDPDFYQLWRKVLFYKFFIDSPHSKELCVSDNPEESLDICAMKLRDLTVMWCLRIFDKFQNYMVQLERSRNSRMIRSKCEEMIIKSIFDLFIKFWAPPQLVILKVFPSAISSLVLEITGQEHHCLLKEAEEVKETYDIPPHLLNRWCLPYLTDTRRHLQNLLSKENDDESRITWCYRDREIKQSFDFFLISNHDDVDLNTMLTLIDTVLFKCYLYYNPPMVGPFIRVENHCDSHVIVTELKIRHMFKDLIDFYYKRGNHEEALKFLTDLVDELENDNTDQKQRQKIDHGVKILVIYYLKKLSNPQLDVIFTYTDWLLNRHNDSIKEILSSIFFYDSQACSSRDHLKVYGYIKKFDKLLAIQYLEFAISTFRLEGNKLHTVLIKLYLENLDIPSTRIKLKSLLETTSVYEPRTILKLLNDAIESGSDQLPTNQLNFVKYLKIFPLSKLENHKEAVHILLDEIDDYKAATSYCNDVYQSDSTKGEELLLYLYSKLVSIYDSNRNSKLILNFLQDHGSKLNSAEIYKNLPQDISLYDIGRVVSQLLKKHTSKMDETRLEKALLQVELVATTYKLNERMSSYGVLSDSHKCPICKKVISNFGTDSISWFTREGRNIITHYNCGKVLQERFNAKNEKSSRIKQKTLGEVINELNNK
For B1, the co-precipitation efficiency relative to that of Vps41-HA was 2 fold.
